Experimental data as given in article PMC6477179, “FIP200 Claw Domain Binding to p62 Promotes Autophagosome Formation at Ubiquitin Condensates” (Molecular Cell, 2019).
Changes are numbered by the printed parent chain. Names and notes keep the numbering of the source.

B1: GST-p62 FIR 3P (domain or fragment, human, UniProt Q13501 326-380, looked up)
chain: MESDNCSGGDDDWTHLSSKEVDPSTGELQSLQMPESEGPDDLDPDQEGPTGLKEA
notes: also called 3P (S365D, S366D, S370D); triple mutant; source: E. coli Rosetta (DE3) pLysS, purified (GSTrap, SEC)
B2: GST-p62 FIR 4P (domain or fragment, human, UniProt Q13501 326-380, looked up)
chain: B1 chain with S24D
notes: also called 4P (S349D, S365D, S366D, S370D); quadruple mutant; source: E. coli Rosetta (DE3) pLysS, purified (GSTrap, SEC)
B3: GST-FIP200 CTR aa 1429-1594 (domain or fragment, human, UniProt Q8TDY2 1429-1594, looked up)
chain: ADEGRVDSAMETSMMSVQENIHMLSEEKQRIMLLERTLQLKEEENKRLNQRLMSQSMSSVSSRHSEKIAIRDFQVGDLVLIILDERHDNYVLFTVSPTLYFLHSESLPALDLKPGEGASGASRRPWVLGKVMEKEYCQAKKAQNRFKVPLGTKFYRVKAVSWNKKV
notes: FIP200 (RB1CC1), human, C-terminal region, residues 1429-1594; cloned in pGEX 4T1; also called FIP200 C-terminal region (CTR); source: E. coli Rosetta (DE3) pLysS, purified (GSTrap, SEC)
B4: GFP-FIP200 CTR aa 1429-1594 (domain or fragment, human, UniProt Q8TDY2 1429-1594, looked up)
chain: B3 chain
notes: FIP200 (RB1CC1), human, C-terminal region, residues 1429-1594; source: E. coli Rosetta (DE3) pLysS, purified (HisTrap, TEV, SEC); not shown: His6, N-terminal, cleaved; GFP, N-terminal, kept
B5: FIP200 Claw (aa 1494-1594) (domain or fragment, human, UniProt Q8TDY2 1494-1594, looked up)
chain: EKIAIRDFQVGDLVLIILDERHDNYVLFTVSPTLYFLHSESLPALDLKPGEGASGASRRPWVLGKVMEKEYCQAKKAQNRFKVPLGTKFYRVKAVSWNKKV
modifications: selenomethionine-substituted (crystal)
notes: FIP200 (RB1CC1), human, Claw domain, residues 1494-1594; one monomer in the asymmetric unit, dimer by a crystallographic 2-fold; also called isolated Claw domain; FIP200 Claw domain; source: E. coli BL21(DE3), purified (Ni-NTA, TEV, Superdex 75)
B6: GST-p62 aa334-356 (domain or fragment, human, UniProt Q13501 334-356, looked up)
chain: GDDDWTHLSSKEVDPSTGELQSL
notes: p62/SQSTM1, human, residues 334-356; also called pGEX-p62 aa334-356; source: E. coli Rosetta (DE3) pLysS, purified (GSTrap, SEC)
B7: FIP200 CTR (aa 1458-1594) (domain or fragment, human, UniProt Q8TDY2 1458-1594, looked up)
chain: RIMLLERTLQLKEEENKRLNQRLMSQSMSSVSSRHSEKIAIRDFQVGDLVLIILDERHDNYVLFTVSPTLYFLHSESLPALDLKPGEGASGASRRPWVLGKVMEKEYCQAKKAQNRFKVPLGTKFYRVKAVSWNKKV
notes: FIP200 (RB1CC1), human, C-terminal region, residues 1458-1594; source: E. coli Rosetta2 (DE3), purified (Ni-NTA, TEV, Superdex S75); not shown: His6, N-terminal, cleaved

Key:
[1] = molecular target: T1, GFP-FIP200 CTR aa 1458-1594 (human, UniProt Q8TDY2 1458-1594); test: microscopy-based protein-protein interaction assay (bait on beads); GST-tagged bait on glutathione Sepharose 4B beads, 2-5 μM fluorescently labeled prey not washed away (equilibrium), 25 mM HEPES pH 7.5, 150 mM NaCl, 1 mM DTT, 30 min to 1 h at room temperature or 4°C; confocal or spinning disk microscopy; settings: both partners purified
T1 construct: FIP200 (RB1CC1), human, C-terminal region, residues 1458-1594; also called GFP-FIP200 CTR WT; WT GFP-FIP200 CTR; source: E. coli Rosetta (DE3) pLysS, purified (HisTrap, TEV, SEC); not shown: His6, N-terminal, cleaved; GFP, N-terminal, kept

[2] = molecular target: T2, FITC-labeled full-length FIP200 (FITC-FIP200-MBP) (human, UniProt Q8TDY2 1-1594, FITC-LPETGG peptide joined to the N-terminal glycine by Δ59SortaseA (FITC on the N-terminus)); test: as above; settings: both partners purified
T2 construct: FIP200 (RB1CC1), human, full length; pCAG vector; also called Gly-FIP200-MBP; source: HEK293-GnT1 suspension cells, purified (Glutathione Sepharose, TEV, amylose resin, Superose 6); not shown: GST, N-terminal, cleaved; MBP, C-terminal, kept

GFP-FIP200 CTR N1517F = molecular target: T3, GFP-FIP200 CTR N1517F (human, UniProt Q8TDY2 1458-1594, N1517F); test: as above; settings: both partners purified
T3 construct: FIP200 (RB1CC1), human, C-terminal region, residues 1458-1594; source: E. coli Rosetta (DE3) pLysS, purified (HisTrap, TEV, SEC); not shown: His6, N-terminal, cleaved; GFP, N-terminal, kept

mCherry-p62 wt [3] = molecular target: T4, mCherry-p62 wt (human, UniProt Q13501 1-440); test: as above; settings: both partners purified
T4 construct: p62/SQSTM1, human, full length; also called full-length mCherry-p62 WT; source: E. coli, purified as previously described (Wurzer et al., 2015)

mCherry-p62 LIRmut = molecular target: T5, mCherry-p62 LIRmut (human, UniProt Q13501 1-440, residues 335-338 are mutated to Ala); test: as above; settings: both partners purified
T5 construct: p62/SQSTM1, human, full length, LIR motif mutated; also called the LIR mutant; source: E. coli, purified as previously described (Wurzer et al., 2015)

mCherry-p62 wt [4] = molecular target: T4, mCherry-p62 wt; test: microscopy-based protein-protein interaction assay (bait on beads); GSH beads coated with GST-2x ubiquitin, excess washed off, incubated with mCherry-p62 (2 μM) and GFP-FIP200 CTR (5 μM) for 1 h, imaged by microscopy; settings: both partners purified
[5] = molecular target: the molecule itself; test: crystal structure; FIP200 Claw aa 1494-1594, SeMet crystal, 1.56 Å, space group C2221, one monomer in the asymmetric unit; 0.1 M HEPES pH 7.4, 2 M ammonium sulfate
[6] = molecular target: B4; test: microscopy-based protein-protein interaction assay (bait on beads); GST-tagged bait on glutathione Sepharose 4B beads, 2-5 μM fluorescently labeled prey not washed away (equilibrium), 25 mM HEPES pH 7.5, 150 mM NaCl, 1 mM DTT, 30 min to 1 h at room temperature or 4°C; confocal or spinning disk microscopy; settings: both partners purified
[7] = molecular target: the molecule itself; test: SEC with right-angle light scattering; 100 μl of 3 mg/ml FIP200 CTR on Superdex S75 10/300 with RALS-refractive index detector; 25 mM HEPES pH 7.5, 150 mM NaCl

B1
binding result [1]: binds

B2
binding result [1]: binds | binding result [2]: binds | binding result (GFP-FIP200 CTR N1517F): binds

B3
binding result (mCherry-p62 wt [3]): binds | binding result (mCherry-p62 LIRmut): binds

B4
binding result (mCherry-p62 wt [4]): binds

B5
binding result [5]: binds

B6
binding result [6]: binds

B7
stoichiometry N [7]: 2
